Measured values: the supplement of paper PMC9112550, “Optimization of the antimicrobial peptide Bac7 by deep mutational scanning” (BMC Biology, 2022)

Tested on: Escherichia coli TOP10
Assay: shrunken log2 fold change of peptide-encoding DNA abundance (4.5 h post-induction vs induction); higher = less antimicrobial activity (less host growth inhibition)
Settings: time post-induction: 4.5 h; library: site-saturation at positions 5, 18, 19, 20
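Further: peptides expressed intracellularly from a pBAD plasmid library in pooled LB shake-flask culture, induced with 0.3% L-arabinose, DNA abundance read by NGS, three biological replicates, DESeq2 with apeglm shrinkage.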

In the case of RRIRKRPPRLPRPRPRPEGRPRP, the “shrunken log2 fold change” value is reported as 0.261.

With RRIRKRPPRLPRPRPRPEKQPRP the “shrunken log2 fold change” value was -0.0582.

In the case of RRIRKRPPRLPRPRPRPEKRPRP, the “shrunken log2 fold change” value is reported as 0.81.

In the case of RRIRKRPPRLPRPRPRPEKVPRP, the “shrunken log2 fold change” value is reported as 0.112.

For RRIRKRPPRLPRPRPRPEMRPRP, the “shrunken log2 fold change” value was 0.105.

For RRIRKRPPRLPRPRPRPENAPRP, the “shrunken log2 fold change” value was 0.116.

With RRIRKRPPRLPRPRPRPENSPRP the “shrunken log2 fold change” value was -0.131.

With RRIRKRPPRLPRPRPRPEQSPRP the “shrunken log2 fold change” value was 0.94.

With RRIRKRPPRLPRPRPRPETGPRP the “shrunken log2 fold change” value was 0.226.

With RRIRKRPPRLPRPRPRPETYPRP the “shrunken log2 fold change” value was -0.00198.

RRIRKRPPRLPRPRPRPEVNPRP was tested, and the “shrunken log2 fold change” value was 3.37.

In the case of RRIRKRPPRLPRPRPRPEWAPRP, the “shrunken log2 fold change” value is reported as 0.604.

For RRIRKRPPRLPRPRPRPFDLPRP, the “shrunken log2 fold change” value was 0.0686.

In the case of RRIRKRPPRLPRPRPRPFDTPRP, the “shrunken log2 fold change” value is reported as -0.0262.

With RRIRKRPPRLPRPRPRPFDYPRP the “shrunken log2 fold change” value was -0.121.

In the case of RRIRKRPPRLPRPRPRPFETPRP, the “shrunken log2 fold change” value is reported as 0.163.

With RRIRKRPPRLPRPRPRPFGYPRP the “shrunken log2 fold change” value was -0.0856.

RRIRKRPPRLPRPRPRPFLVPRP was tested, and the “shrunken log2 fold change” value was 0.00497.

For RRIRKRPPRLPRPRPRPFMFPRP, the “shrunken log2 fold change” value was -0.0278.

For RRIRKRPPRLPRPRPRPFPSPRP, the “shrunken log2 fold change” value was 0.175.

RRIRKRPPRLPRPRPRPFQKPRP was tested, and the “shrunken log2 fold change” value was 0.0267.

In the case of RRIRKRPPRLPRPRPRPFSAPRP, the “shrunken log2 fold change” value is reported as -0.12.

With RRIRKRPPRLPRPRPRPFSCPRP the “shrunken log2 fold change” value was -0.122.

With RRIRKRPPRLPRPRPRPFSDPRP the “shrunken log2 fold change” value was 0.0546.

In the case of RRIRKRPPRLPRPRPRPFSWPRP, the “shrunken log2 fold change” value is reported as 0.0937.

For RRIRKRPPRLPRPRPRPFVKPRP, the “shrunken log2 fold change” value was -0.00571.

RRIRKRPPRLPRPRPRPFWIPRP was tested, and the “shrunken log2 fold change” value was -0.414.

For RRIRKRPPRLPRPRPRPFWMPRP, the “shrunken log2 fold change” value was 0.0752.

In the case of RRIRKRPPRLPRPRPRPFWPPRP, the “shrunken log2 fold change” value is reported as 0.537.

In the case of RRIRKRPPRLPRPRPRPGARPRP, the “shrunken log2 fold change” value is reported as 0.962.

For RRIRKRPPRLPRPRPRPGAWPRP, the “shrunken log2 fold change” value was 0.364.

With RRIRKRPPRLPRPRPRPGDGPRP the “shrunken log2 fold change” value was 3.56.

With RRIRKRPPRLPRPRPRPGDYPRP the “shrunken log2 fold change” value was 0.559.

For RRIRKRPPRLPRPRPRPGELPRP, the “shrunken log2 fold change” value was -0.012.

For RRIRKRPPRLPRPRPRPGFIPRP, the “shrunken log2 fold change” value was -0.307.

With RRIRKRPPRLPRPRPRPGGAPRP the “shrunken log2 fold change” value was 0.729.

With RRIRKRPPRLPRPRPRPGGSPRP the “shrunken log2 fold change” value was 0.178.

For RRIRKRPPRLPRPRPRPGGYPRP, the “shrunken log2 fold change” value was 0.61.

For RRIRKRPPRLPRPRPRPGHIPRP, the “shrunken log2 fold change” value was -0.0657.

With RRIRKRPPRLPRPRPRPGHWPRP the “shrunken log2 fold change” value was 0.2.

RRIRKRPPRLPRPRPRPGIDPRP was tested, and the “shrunken log2 fold change” value was 0.792.

RRIRKRPPRLPRPRPRPGIFPRP was tested, and the “shrunken log2 fold change” value was 0.409.

In the case of RRIRKRPPRLPRPRPRPGIKPRP, the “shrunken log2 fold change” value is reported as 0.34.

With RRIRKRPPRLPRPRPRPGIMPRP the “shrunken log2 fold change” value was -0.206.

With RRIRKRPPRLPRPRPRPGKLPRP the “shrunken log2 fold change” value was -0.208.

In the case of RRIRKRPPRLPRPRPRPGMCPRP, the “shrunken log2 fold change” value is reported as 0.863.

With RRIRKRPPRLPRPRPRPGMWPRP the “shrunken log2 fold change” value was 0.438.

With RRIRKRPPRLPRPRPRPGNFPRP the “shrunken log2 fold change” value was -0.373.

With RRIRKRPPRLPRPRPRPGNHPRP the “shrunken log2 fold change” value was 0.0875.

With RRIRKRPPRLPRPRPRPGQIPRP the “shrunken log2 fold change” value was 0.00502.

For RRIRKRPPRLPRPRPRPGRAPRP, the “shrunken log2 fold change” value was 0.786.

With RRIRKRPPRLPRPRPRPGRIPRP the “shrunken log2 fold change” value was -0.0354.

In the case of RRIRKRPPRLPRPRPRPGRVPRP, the “shrunken log2 fold change” value is reported as 0.58.

RRIRKRPPRLPRPRPRPGSHPRP was tested, and the “shrunken log2 fold change” value was 0.0202.

RRIRKRPPRLPRPRPRPGSLPRP was tested, and the “shrunken log2 fold change” value was -0.0469.

RRIRKRPPRLPRPRPRPGSMPRP was tested, and the “shrunken log2 fold change” value was 0.285.

For RRIRKRPPRLPRPRPRPGSNPRP, the “shrunken log2 fold change” value was -0.0467.

For RRIRKRPPRLPRPRPRPGTHPRP, the “shrunken log2 fold change” value was 0.213.

In the case of RRIRKRPPRLPRPRPRPGVEPRP, the “shrunken log2 fold change” value is reported as 1.09.

RRIRKRPPRLPRPRPRPGYLPRP was tested, and the “shrunken log2 fold change” value was -0.319.
